Ends that are not written are not given here.

The target of test [1] is T1, TAERDEL retrieval signal peptide.
T1 chain: TAERDEL
Put plainly: peptide binding assay.

The target of test [2] is T2, TAEDDEL retrieval signal peptide.
T2 chain: TAEDDEL
Put plainly: peptide binding assay.

The target in test [3] is T3, TAEHDEL retrieval signal peptide.
T3 chain: TAEHDEL
Put plainly: competition binding with [3H]-TAEHDEL.

Test [4] deals with T4, TAEHDEL-CONH retrieval signal peptide.
T4 chain: TAEHDEL-NH2
Put plainly: competition binding with [3H]-TAEHDEL.

Test [5] has as its target T3, TAEHDEL retrieval signal peptide. Put plainly: [3H]-peptide filter binding assay.
The target of test [6] is T5, TAEKDEL retrieval signal peptide (BiP) (Homo sapiens).
T5 chain: TAEKDEL
Put plainly: [3H]-peptide filter binding assay.

The target in test [7] is T3, TAEHDEL retrieval signal peptide. Put plainly: [3H]-peptide filter binding assay, pH 5.4.
Test [8] deals with T5, TAEKDEL retrieval signal peptide (BiP). Put plainly: [3H]-peptide filter binding assay, pH 5.4.

B1: KDEL receptor 2 (protein)
chain: MNIFRLTGDLSHLAAIIILLLKIWKSRSCAGISGKSQLLFALVFTTRYLDLFTSFISLYNTSMKLIYIACSYATVYLIYMKFKATYDGNHDTFRVEFLIVPVGGLSFLVNHDFSPLEILWTFSIYLESVAILPQLFMISKTGEAETITTHYLFFLGLYRALYLVNWIWRYYFEGFFDLIAVVAGVVQTVLYCDFFYLYVTKVLKGKKLSLPA
Regarding B1, the Kd in test [1] came out at 2.71 µM; in test [2] it was 14.9 µM; in test [5], 0.24 µM; in test [6] it was 1.94 µM; in test [7], 0.26 µM; in test [8], 1.9 µM. For the same molecule, the IC50 in test [3] turned out to be 19 µM; in test [4], 1700 µM.

What is called Kd is the free concentration of one partner at which half of the binding sites on the other are occupied at equilibrium, for simple one-to-one binding. Read a low Kd as higher affinity. A word on the IC50: it is the point on the concentration scale where inhibition reaches its midpoint. Read a low IC50 as greater potency.

The record behind these values is article PMC8248988, “A signal capture and proofreading mechanism for the KDEL-receptor explains selectivity and dynamic range in ER retrieval” (eLife, 2021).
